This test addresses KFERQ-PAmCherry-Flag. Kind of test: co-IP (IP: HA, IB: Flag), western blot quantification. The settings on record: HEK293T SIRT2KD cells; parent: est. 1.0; read off a plot. For orientation: In western blotting, separated proteins are transferred to a membrane and probed.

Take HSC70-HA WT (from UniProt P11142) K557R: the ratio to parent was found to be 1.6.
